Numbered stars: 1 amine (or outer) side, 2 acyl side, 3 side chain; on linkers, the order of the positions; unused ones are H or OH. Side chains are listed from the residue outwards. Ends that are not written are not given here. * marks the point of attachment. C16 diacid = O=C(O)CCCCCCCCCCCCCCC(=O)*; γGlu = O=C(O)[C@H](CCC(=O)[*:2])N[*:1]; Palmitoyl = CCCCCCCCCCCCCCCC(=O)*; AEEA = NCCOCCOCC(=O)O
Columns and labels:
human GIP receptor [1] = biological target: T1, human GIP receptor (human, UniProt P48546 22-466); assay: 125I-hGIP(1-42) competition binding, COS-7 cells expressing human GIPR, 0.1% casein (no HSA)
T1 construct: whole, on cells; Transiently transfected COS-7 cells expressing the human GIP receptor; also called hGIPR
T1 sequence (looked up): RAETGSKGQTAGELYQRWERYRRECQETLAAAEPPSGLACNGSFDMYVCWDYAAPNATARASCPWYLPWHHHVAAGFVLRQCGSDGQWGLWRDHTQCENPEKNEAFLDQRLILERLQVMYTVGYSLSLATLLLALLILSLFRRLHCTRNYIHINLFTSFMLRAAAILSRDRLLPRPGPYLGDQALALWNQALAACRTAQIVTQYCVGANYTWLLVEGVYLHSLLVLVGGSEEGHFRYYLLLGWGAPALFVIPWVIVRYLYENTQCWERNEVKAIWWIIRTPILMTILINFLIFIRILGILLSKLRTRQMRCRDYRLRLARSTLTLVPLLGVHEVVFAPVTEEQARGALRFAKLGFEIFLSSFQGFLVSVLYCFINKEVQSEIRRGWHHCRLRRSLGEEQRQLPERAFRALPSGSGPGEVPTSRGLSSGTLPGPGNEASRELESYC
Protocol: (§1) After incubation, the cells were washed twice in ice-cold binding buffer (+/−2% HSA) and lysed using 200 mM NaOH with 1% SDS for 30 min. Nonspecific binding was determined as the binding of radioactive ligand to untransfected cells.

human GIP receptor [2] = biological target: T1, human GIP receptor; assay: 125I-hGIP(1-42) competition binding, COS-7 cells expressing human GIPR
Protocol: as §1

human GIP receptor [3] = biological target: T1, human GIP receptor; assay: cell-based or functional assay
human GIP receptor [4] = biological target: T1, human GIP receptor; assay: 125I-hGIP(1-42) competition binding, COS-7 cells expressing human GIPR, 2% HSA
Protocol: as §1

human GIP receptor [5] = biological target: T1, human GIP receptor; assay: cell-based or functional assay; remark: listed apart in the source
human serum albumin = biological target: T2, human serum albumin (human, UniProt P02768 25-609); assay: 125I-human GIP competition binding on hGIPR COS-7 cells with and without 2% HSA; fold change of IC50 taken as HSA binding
T2 construct: also called HSA; human albumin
T2 sequence (P02768 25-609 limits assumed): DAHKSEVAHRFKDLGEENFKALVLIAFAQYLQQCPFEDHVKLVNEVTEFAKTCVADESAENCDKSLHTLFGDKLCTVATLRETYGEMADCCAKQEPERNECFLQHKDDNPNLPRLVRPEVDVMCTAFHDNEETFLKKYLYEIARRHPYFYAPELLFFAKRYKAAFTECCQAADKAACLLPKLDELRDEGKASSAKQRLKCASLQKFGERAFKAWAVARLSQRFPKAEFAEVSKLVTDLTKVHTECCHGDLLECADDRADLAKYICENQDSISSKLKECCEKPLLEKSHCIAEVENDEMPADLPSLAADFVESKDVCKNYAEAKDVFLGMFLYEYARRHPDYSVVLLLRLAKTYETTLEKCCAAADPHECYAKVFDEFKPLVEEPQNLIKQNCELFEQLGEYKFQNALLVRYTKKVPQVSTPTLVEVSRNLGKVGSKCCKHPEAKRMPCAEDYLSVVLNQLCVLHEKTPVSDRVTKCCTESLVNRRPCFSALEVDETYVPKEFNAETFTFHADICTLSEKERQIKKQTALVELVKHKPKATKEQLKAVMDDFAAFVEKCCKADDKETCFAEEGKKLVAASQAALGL
Protocol: as §1

B1: AT117 [hGIP(3-30)NH2[H18K]-C16/18] (peptide)
peptide: EGTFISDYSIAMDKIK(Palmitoyl)QQDFVNWLLAQK-NH2
modifications: N-terminus assumed
SMILES: CCCCCCCCCCCCCCCC(=O)NCCCC[C@H](NC(=O)[C@@H](NC(=O)[C@H](CCCCN)NC(=O)[C@H](CC(=O)O)NC(=O)[C@H](CCSC)NC(=O)[C@H](C)NC(=O)[C@@H](NC(=O)[C@H](CO)NC(=O)[C@H](Cc1ccc(O)cc1)NC(=O)[C@H](CC(=O)O)NC(=O)[C@H](CO)NC(=O)[C@@H](NC(=O)[C@H](Cc1ccccc1)NC(=O)[C@@H](NC(=O)CNC(=O)[C@@H](N)CCC(=O)O)[C@@H](C)O)[C@@H](C)CC)[C@@H](C)CC)[C@@H](C)CC)C(=O)N[C@@H](CCC(N)=O)C(=O)N[C@@H](CCC(N)=O)C(=O)N[C@@H](CC(=O)O)C(=O)N[C@@H](Cc1ccccc1)C(=O)N[C@H](C(=O)N[C@@H](CC(N)=O)C(=O)N[C@@H](Cc1c[nH]c2ccccc12)C(=O)N[C@@H](CC(C)C)C(=O)N[C@@H](CC(C)C)C(=O)N[C@@H](C)C(=O)N[C@@H](CCC(N)=O)C(=O)N[C@@H](CCCCN)C(N)=O)C(C)C
**Q.** Which IC50 (human GIP receptor [1]) does the source give for B1 here?
**A.** 110 nM

**Q.** What about the IC50 (human GIP receptor [2]) of the same binder?
**A.** 292 nM

**Q.** And the “cAMP - antagonisme IC50” value (human GIP receptor [3])?
**A.** 19.4 nM

**Q.** What about the IC50 (human GIP receptor [4]) of the same binder?
**A.** 1730 nM

B2: AT167 [hGIP(3-30)NH2[H18K]-C16/18+y-glutamic acid+8-amino-3,6-dioxaoctanoic acid] (peptide)
peptide: EGTFISDYSIAMDKIK([γGlu-AEEA-Palmitoyl])QQDFVNWLLAQK-NH2
modifications: also: order of γGlu and AEEAc linker pieces on Lys not given here
**Q.** Which results are given for B2?
**A.** cAMP accumulation Fold change (from GIP(3-30)NH2) (human GIP receptor [5]): 14.8 fold; cAMP accumulation IC50 (human GIP receptor [5]): 4.4 nM; cAMP accumulation logIC50 (human GIP receptor [5]): -8.36 log(M)

B3: AT169 [hGIP(5-30)NH2[I7K]-C16diacid/7] (peptide)
peptide: TFK(C16 diacid)SDYSIAMDKIHQQDFVNWLLAQK-NH2
modifications: N-terminus assumed
SMILES: CC[C@H](C)[C@H](NC(=O)[C@H](CO)NC(=O)[C@H](Cc1ccc(O)cc1)NC(=O)[C@H](CC(=O)O)NC(=O)[C@H](CO)NC(=O)[C@H](CCCCNC(=O)CCCCCCCCCCCCCCC(=O)O)NC(=O)[C@H](Cc1ccccc1)NC(=O)[C@@H](N)[C@@H](C)O)C(=O)N[C@@H](C)C(=O)N[C@@H](CCSC)C(=O)N[C@@H](CC(=O)O)C(=O)N[C@@H](CCCCN)C(=O)N[C@H](C(=O)N[C@@H](Cc1c[nH]cn1)C(=O)N[C@@H](CCC(N)=O)C(=O)N[C@@H](CCC(N)=O)C(=O)N[C@@H](CC(=O)O)C(=O)N[C@@H](Cc1ccccc1)C(=O)N[C@H](C(=O)N[C@@H](CC(N)=O)C(=O)N[C@@H](Cc1c[nH]c2ccccc12)C(=O)N[C@@H](CC(C)C)C(=O)N[C@@H](CC(C)C)C(=O)N[C@@H](C)C(=O)N[C@@H](CCC(N)=O)C(=O)N[C@@H](CCCCN)C(N)=O)C(C)C)[C@@H](C)CC
**Q.** Does B3 bind (human serum albumin)?
**A.** binds

B4: AT171 [hGIP(5-30)NH2[D9K]-C16diacid/9] (peptide)
peptide: TFISK(C16 diacid)YSIAMDKIHQQDFVNWLLAQK-NH2
modifications: N-terminus assumed
SMILES: CC[C@H](C)[C@H](NC(=O)[C@H](CO)NC(=O)[C@H](Cc1ccc(O)cc1)NC(=O)[C@H](CCCCNC(=O)CCCCCCCCCCCCCCC(=O)O)NC(=O)[C@H](CO)NC(=O)[C@@H](NC(=O)[C@H](Cc1ccccc1)NC(=O)[C@@H](N)[C@@H](C)O)[C@@H](C)CC)C(=O)N[C@@H](C)C(=O)N[C@@H](CCSC)C(=O)N[C@@H](CC(=O)O)C(=O)N[C@@H](CCCCN)C(=O)N[C@H](C(=O)N[C@@H](Cc1c[nH]cn1)C(=O)N[C@@H](CCC(N)=O)C(=O)N[C@@H](CCC(N)=O)C(=O)N[C@@H](CC(=O)O)C(=O)N[C@@H](Cc1ccccc1)C(=O)N[C@H](C(=O)N[C@@H](CC(N)=O)C(=O)N[C@@H](Cc1c[nH]c2ccccc12)C(=O)N[C@@H](CC(C)C)C(=O)N[C@@H](CC(C)C)C(=O)N[C@@H](C)C(=O)N[C@@H](CCC(N)=O)C(=O)N[C@@H](CCCCN)C(N)=O)C(C)C)[C@@H](C)CC
**Q.** Does B4 bind (human serum albumin)?
**A.** binds

B5: AT173 [hGIP(5-30)NH2[S11K]-C16diacid/11] (peptide)
peptide: TFISDYK(C16 diacid)IAMDKIHQQDFVNWLLAQK-NH2
modifications: N-terminus assumed
SMILES: CC[C@H](C)[C@H](NC(=O)[C@H](CCCCNC(=O)CCCCCCCCCCCCCCC(=O)O)NC(=O)[C@H](Cc1ccc(O)cc1)NC(=O)[C@H](CC(=O)O)NC(=O)[C@H](CO)NC(=O)[C@@H](NC(=O)[C@H](Cc1ccccc1)NC(=O)[C@@H](N)[C@@H](C)O)[C@@H](C)CC)C(=O)N[C@@H](C)C(=O)N[C@@H](CCSC)C(=O)N[C@@H](CC(=O)O)C(=O)N[C@@H](CCCCN)C(=O)N[C@H](C(=O)N[C@@H](Cc1c[nH]cn1)C(=O)N[C@@H](CCC(N)=O)C(=O)N[C@@H](CCC(N)=O)C(=O)N[C@@H](CC(=O)O)C(=O)N[C@@H](Cc1ccccc1)C(=O)N[C@H](C(=O)N[C@@H](CC(N)=O)C(=O)N[C@@H](Cc1c[nH]c2ccccc12)C(=O)N[C@@H](CC(C)C)C(=O)N[C@@H](CC(C)C)C(=O)N[C@@H](C)C(=O)N[C@@H](CCC(N)=O)C(=O)N[C@@H](CCCCN)C(N)=O)C(C)C)[C@@H](C)CC
**Q.** Does B5 bind (human serum albumin)?
**A.** binds

B6: AT175 [hGIP(5-30)NH2[A13K]-C16diacid/13] (peptide)
peptide: TFISDYSIK(C16 diacid)MDKIHQQDFVNWLLAQK-NH2
modifications: N-terminus assumed
SMILES: CC[C@H](C)[C@H](NC(=O)[C@H](CCCCN)NC(=O)[C@H](CC(=O)O)NC(=O)[C@H](CCSC)NC(=O)[C@H](CCCCNC(=O)CCCCCCCCCCCCCCC(=O)O)NC(=O)[C@@H](NC(=O)[C@H](CO)NC(=O)[C@H](Cc1ccc(O)cc1)NC(=O)[C@H](CC(=O)O)NC(=O)[C@H](CO)NC(=O)[C@@H](NC(=O)[C@H](Cc1ccccc1)NC(=O)[C@@H](N)[C@@H](C)O)[C@@H](C)CC)[C@@H](C)CC)C(=O)N[C@@H](Cc1c[nH]cn1)C(=O)N[C@@H](CCC(N)=O)C(=O)N[C@@H](CCC(N)=O)C(=O)N[C@@H](CC(=O)O)C(=O)N[C@@H](Cc1ccccc1)C(=O)N[C@H](C(=O)N[C@@H](CC(N)=O)C(=O)N[C@@H](Cc1c[nH]c2ccccc12)C(=O)N[C@@H](CC(C)C)C(=O)N[C@@H](CC(C)C)C(=O)N[C@@H](C)C(=O)N[C@@H](CCC(N)=O)C(=O)N[C@@H](CCCCN)C(N)=O)C(C)C
**Q.** Does B6 bind (human serum albumin)?
**A.** binds

B7: AT181 [hGIP(5-30)NH2[D21K]-C16diacid/21] (peptide)
peptide: TFISDYSIAMDKIHQQK(C16 diacid)FVNWLLAQK-NH2
modifications: N-terminus assumed
SMILES: CC[C@H](C)[C@H](NC(=O)[C@H](CO)NC(=O)[C@H](Cc1ccc(O)cc1)NC(=O)[C@H](CC(=O)O)NC(=O)[C@H](CO)NC(=O)[C@@H](NC(=O)[C@H](Cc1ccccc1)NC(=O)[C@@H](N)[C@@H](C)O)[C@@H](C)CC)C(=O)N[C@@H](C)C(=O)N[C@@H](CCSC)C(=O)N[C@@H](CC(=O)O)C(=O)N[C@@H](CCCCN)C(=O)N[C@H](C(=O)N[C@@H](Cc1c[nH]cn1)C(=O)N[C@@H](CCC(N)=O)C(=O)N[C@@H](CCC(N)=O)C(=O)N[C@@H](CCCCNC(=O)CCCCCCCCCCCCCCC(=O)O)C(=O)N[C@@H](Cc1ccccc1)C(=O)N[C@H](C(=O)N[C@@H](CC(N)=O)C(=O)N[C@@H](Cc1c[nH]c2ccccc12)C(=O)N[C@@H](CC(C)C)C(=O)N[C@@H](CC(C)C)C(=O)N[C@@H](C)C(=O)N[C@@H](CCC(N)=O)C(=O)N[C@@H](CCCCN)C(N)=O)C(C)C)[C@@H](C)CC
**Q.** Does B7 bind (human serum albumin)?
**A.** binds

B8: AT117 [hGIP(3-30)NH2[H18K]-C16/18] (peptide)
peptide: EGTFISDYSIAMDKIK(Palmitoyl)QQDFVNWLLAQK-NH2
modifications: N-terminus assumed
SMILES: CCCCCCCCCCCCCCCC(=O)NCCCC[C@H](NC(=O)[C@@H](NC(=O)[C@H](CCCCN)NC(=O)[C@H](CC(=O)O)NC(=O)[C@H](CCSC)NC(=O)[C@H](C)NC(=O)[C@@H](NC(=O)[C@H](CO)NC(=O)[C@H](Cc1ccc(O)cc1)NC(=O)[C@H](CC(=O)O)NC(=O)[C@H](CO)NC(=O)[C@@H](NC(=O)[C@H](Cc1ccccc1)NC(=O)[C@@H](NC(=O)CNC(=O)[C@@H](N)CCC(=O)O)[C@@H](C)O)[C@@H](C)CC)[C@@H](C)CC)[C@@H](C)CC)C(=O)N[C@@H](CCC(N)=O)C(=O)N[C@@H](CCC(N)=O)C(=O)N[C@@H](CC(=O)O)C(=O)N[C@@H](Cc1ccccc1)C(=O)N[C@H](C(=O)N[C@@H](CC(N)=O)C(=O)N[C@@H](Cc1c[nH]c2ccccc12)C(=O)N[C@@H](CC(C)C)C(=O)N[C@@H](CC(C)C)C(=O)N[C@@H](C)C(=O)N[C@@H](CCC(N)=O)C(=O)N[C@@H](CCCCN)C(N)=O)C(C)C
**Q.** Does B8 bind (human serum albumin)?
**A.** binds

From US20200087373A1 (UNIVERSITY OF COPENHAGEN, published 2020)
